Laboratory results published in patent US20200024348A1 (Alector, published 2020).

T1: histidine-tagged human SORT1 (R&D Systems) (human, UniProt Q99523 78-755)
T1 construct: Bought recombinant protein; also called His-tagged human SORT1; not shown: histidine tag
T1 sequence: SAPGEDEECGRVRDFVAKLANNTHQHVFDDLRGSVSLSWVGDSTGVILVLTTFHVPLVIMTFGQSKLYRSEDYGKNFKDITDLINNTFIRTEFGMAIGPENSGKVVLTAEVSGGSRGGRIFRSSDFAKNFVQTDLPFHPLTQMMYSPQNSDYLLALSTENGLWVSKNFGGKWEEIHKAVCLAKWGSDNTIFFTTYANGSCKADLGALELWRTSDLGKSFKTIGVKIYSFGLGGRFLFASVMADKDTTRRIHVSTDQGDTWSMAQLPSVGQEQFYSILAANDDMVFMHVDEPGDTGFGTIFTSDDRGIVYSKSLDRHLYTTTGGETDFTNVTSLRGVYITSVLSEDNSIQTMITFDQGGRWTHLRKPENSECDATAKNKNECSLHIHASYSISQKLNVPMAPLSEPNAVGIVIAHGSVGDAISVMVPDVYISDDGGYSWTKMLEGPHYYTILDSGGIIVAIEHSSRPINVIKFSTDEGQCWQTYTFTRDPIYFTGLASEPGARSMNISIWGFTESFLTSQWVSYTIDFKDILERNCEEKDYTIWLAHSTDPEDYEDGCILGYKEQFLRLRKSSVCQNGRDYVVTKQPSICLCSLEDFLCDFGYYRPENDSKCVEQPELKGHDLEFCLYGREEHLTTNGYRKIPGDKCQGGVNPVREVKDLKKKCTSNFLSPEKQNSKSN


target: T1, histidine-tagged human SORT1 (R&D …); experiment: BLI (Octet RED96), antibody captured on anti-human IgG Fc sensor, 20 nM His-tagged human SORT1, 1:1 fit
Procedure: The G1m3 or G1m(f) allotype with L234A/L235A/P331S (“LALAPS” motif) mutations was used as a background (Jefferis R and Lefranc M-P, Mabs, 2009 July-August; 1(4): 332-338). […] Bio-layer interferometry (BLI) data was collected at a rate of 5 Hz at 25° C. on a Pall ForteBio Octet RED96 instrument. Data analysis was performed using ForteBio Data Analysis Software, version 9.0. Standard kinetic buffer (PBS, 0.1 BSA, 0.02 Tween-20, pH 7.2) was used for the assay and for preparing reagents. For all assays, sensor tips were equilibrated in buffer prior to analysis.
Twenty nM histidine-tagged human SORT1 (R&D Systems, Minneapolis, Minn.) was then bound to the captured anti-SORT1 surface (200 s association time, 1200 s dissociation time). […] Full, local fitting using a 1:1 interaction model was applied to extract association and dissociation rate constants (kₐ and kd, respectively) for each N33 mutant. Affinity constants (KD) were calculated from the ratio […]. Different amino acid substitutions were made at N33 and tested for binding to SORT1 in an off-rate screen (under non-stress conditions) as shown in Table 9.

Kd	koff	kon	Binder
0.27 nM			S-60-15 [N33 (wt)] huIgG1 LALAPS (antibody, V domains shown, huIgG1 with L234A/L235A/P331S (LALAPS)) VH: QVQLQESGPGLVKPSETLSLTCAVSGYSISSGYYWGWIRQPPGKGLEWIGTIYHSGSTYYNPSLKSRVTISVDTSKNQFSLKLSSVTAADTAVYYCARQGSIKQGYYGMDVWGQGTTVTVSS VL: not shown
0.69 nM	0.000306 s⁻¹	445000 M⁻¹ s⁻¹	S-60-15.14 [N33V] (antibody, human IgG1, kappa, L234A L235A, V domains shown, huIgG1 LALAPS) VH: QVQLQESGPGLVKPSETLSLTCAVSGYSISSGYYWGWIRQPPGKGLEWIGTIYHSGSTYYNPSLKSRVTISVDTSKNQFSLKLSSVTAADTAVYYCARQGSIKQGYYGMDVWGQGTTVTVSS VL: DIVMTQSPLSLPVTPGEPASISCRSSQSLLRSVGYNYLDWYLQKPGQSPQLLIYLGSNRASGVPDRFSGSGSGTDFTLKISRAEAEDVGVYYCMQQQEAPLTFGGGTKVEIKR
0.96 nM	0.000579 s⁻¹	601000 M⁻¹ s⁻¹	S-60-15.11 [N33W] (antibody, human IgG1, kappa, L234A L235A, V domains shown, huIgG1 LALAPS) VH: QVQLQESGPGLVKPSETLSLTCAVSGYSISSGYYWGWIRQPPGKGLEWIGTIYHSGSTYYNPSLKSRVTISVDTSKNQFSLKLSSVTAADTAVYYCARQGSIKQGYYGMDVWGQGTTVTVSS VL: DIVMTQSPLSLPVTPGEPASISCRSSQSLLRSWGYNYLDWYLQKPGQSPQLLIYLGSNRASGVPDRFSGSGSGTDFTLKISRAEAEDVGVYYCMQQQEAPLTFGGGTKVEIKR
2.01 nM	~0.00136 s⁻¹	676000 M⁻¹ s⁻¹	S-60-15.10 [N33E] (antibody, human IgG1, kappa, L234A L235A, V domains shown, huIgG1 LALAPS) VH: QVQLQESGPGLVKPSETLSLTCAVSGYSISSGYYWGWIRQPPGKGLEWIGTIYHSGSTYYNPSLKSRVTISVDTSKNQFSLKLSSVTAADTAVYYCARQGSIKQGYYGMDVWGQGTTVTVSS VL: DIVMTQSPLSLPVTPGEPASISCRSSQSLLRSEGYNYLDWYLQKPGQSPQLLIYLGSNRASGVPDRFSGSGSGTDFTLKISRAEAEDVGVYYCMQQQEAPLTFGGGTKVEIKR
0.823 nM	0.00046 s⁻¹	548000 M⁻¹ s⁻¹	S-60-15.6 [N33H] (antibody, human IgG1, kappa, L234A L235A, V domains shown, huIgG1 LALAPS) VH: QVQLQESGPGLVKPSETLSLTCAVSGYSISSGYYWGWIRQPPGKGLEWIGTIYHSGSTYYNPSLKSRVTISVDTSKNQFSLKLSSVTAADTAVYYCARQGSIKQGYYGMDVWGQGTTVTVSS VL: DIVMTQSPLSLPVTPGEPASISCRSSQSLLRSHGYNYLDWYLQKPGQSPQLLIYLGSNRASGVPDRFSGSGSGTDFTLKISRAEAEDVGVYYCMQQQEAPLTFGGGTKVEIKR
2.91 nM	0.000816 s⁻¹	280000 M⁻¹ s⁻¹	S-60-15.12 [N33F] (antibody, human IgG1, kappa, L234A L235A, V domains shown, huIgG1 LALAPS) VH: QVQLQESGPGLVKPSETLSLTCAVSGYSISSGYYWGWIRQPPGKGLEWIGTIYHSGSTYYNPSLKSRVTISVDTSKNQFSLKLSSVTAADTAVYYCARQGSIKQGYYGMDVWGQGTTVTVSS VL: DIVMTQSPLSLPVTPGEPASISCRSSQSLLRSFGYNYLDWYLQKPGQSPQLLIYLGSNRASGVPDRFSGSGSGTDFTLKISRAEAEDVGVYYCMQQQEAPLTFGGGTKVEIKR
1.28 nM	0.000675 s⁻¹	511000 M⁻¹ s⁻¹	S-60-15.9 [N33Y] (antibody, human IgG1, kappa, L234A L235A, V domains shown, huIgG1 LALAPS) VH: QVQLQESGPGLVKPSETLSLTCAVSGYSISSGYYWGWIRQPPGKGLEWIGTIYHSGSTYYNPSLKSRVTISVDTSKNQFSLKLSSVTAADTAVYYCARQGSIKQGYYGMDVWGQGTTVTVSS VL: DIVMTQSPLSLPVTPGEPASISCRSSQSLLRSYGYNYLDWYLQKPGQSPQLLIYLGSNRASGVPDRFSGSGSGTDFTLKISRAEAEDVGVYYCMQQQEAPLTFGGGTKVEIKR
0.905 nM	0.000653 s⁻¹	609000 M⁻¹ s⁻¹	S-60-15.8 [N33Q] (antibody, human IgG1, kappa, L234A L235A, V domains shown, huIgG1 LALAPS) VH: QVQLQESGPGLVKPSETLSLTCAVSGYSISSGYYWGWIRQPPGKGLEWIGTIYHSGSTYYNPSLKSRVTISVDTSKNQFSLKLSSVTAADTAVYYCARQGSIKQGYYGMDVWGQGTTVTVSS VL: DIVMTQSPLSLPVTPGEPASISCRSSQSLLRSQGYNYLDWYLQKPGQSPQLLIYLGSNRASGVPDRFSGSGSGTDFTLKISRAEAEDVGVYYCMQQQEAPLTFGGGTKVEIKR
0.825 nM	0.000411 s⁻¹	498000 M⁻¹ s⁻¹	S-60-15.3 [N33G] (antibody, human IgG1, kappa, L234A L235A, V domains shown, huIgG1 LALAPS) VH: QVQLQESGPGLVKPSETLSLTCAVSGYSISSGYYWGWIRQPPGKGLEWIGTIYHSGSTYYNPSLKSRVTISVDTSKNQFSLKLSSVTAADTAVYYCARQGSIKQGYYGMDVWGQGTTVTVSS VL: DIVMTQSPLSLPVTPGEPASISCRSSQSLLRSGGYNYLDWYLQKPGQSPQLLIYLGSNRASGVPDRFSGSGSGTDFTLKISRAEAEDVGVYYCMQQQEAPLTFGGGTKVEIKR
0.965 nM	0.000547 s⁻¹	563000 M⁻¹ s⁻¹	S-60-15.7 [N33K] (antibody, human IgG1, kappa, L234A L235A, V domains shown, huIgG1 LALAPS) VH: QVQLQESGPGLVKPSETLSLTCAVSGYSISSGYYWGWIRQPPGKGLEWIGTIYHSGSTYYNPSLKSRVTISVDTSKNQFSLKLSSVTAADTAVYYCARQGSIKQGYYGMDVWGQGTTVTVSS VL: DIVMTQSPLSLPVTPGEPASISCRSSQSLLRSKGYNYLDWYLQKPGQSPQLLIYLGSNRASGVPDRFSGSGSGTDFTLKISRAEAEDVGVYYCMQQQEAPLTFGGGTKVEIKR
0.625 nM	0.000315 s⁻¹	493000 M⁻¹ s⁻¹	S-60-15.15 [N33A] (antibody, human IgG1, kappa, L234A L235A, V domains shown, huIgG1 LALAPS) VH: QVQLQESGPGLVKPSETLSLTCAVSGYSISSGYYWGWIRQPPGKGLEWIGTIYHSGSTYYNPSLKSRVTISVDTSKNQFSLKLSSVTAADTAVYYCARQGSIKQGYYGMDVWGQGTTVTVSS VL: DIVMTQSPLSLPVTPGEPASISCRSSQSLLRSAGYNYLDWYLQKPGQSPQLLIYLGSNRASGVPDRFSGSGSGTDFTLKISRAEAEDVGVYYCMQQQEAPLTFGGGTKVEIKR
0.44 nM	0.000247 s⁻¹	563000 M⁻¹ s⁻¹	S-60-15.2 [N33S] (antibody, human IgG1, kappa, L234A L235A, V domains shown, huIgG1 LALAPS) VH: QVQLQESGPGLVKPSETLSLTCAVSGYSISSGYYWGWIRQPPGKGLEWIGTIYHSGSTYYNPSLKSRVTISVDTSKNQFSLKLSSVTAADTAVYYCARQGSIKQGYYGMDVWGQGTTVTVSS VL: DIVMTQSPLSLPVTPGEPASISCRSSQSLLRSSGYNYLDWYLQKPGQSPQLLIYLGSNRASGVPDRFSGSGSGTDFTLKISRAEAEDVGVYYCMQQQEAPLTFGGGTKVEIKR
0.88 nM	0.00046 s⁻¹	524000 M⁻¹ s⁻¹	S-60-15.4 [N33R] (antibody, human IgG1, kappa, L234A L235A, V domains shown, huIgG1 LALAPS) VH: QVQLQESGPGLVKPSETLSLTCAVSGYSISSGYYWGWIRQPPGKGLEWIGTIYHSGSTYYNPSLKSRVTISVDTSKNQFSLKLSSVTAADTAVYYCARQGSIKQGYYGMDVWGQGTTVTVSS VL: DIVMTQSPLSLPVTPGEPASISCRSSQSLLRSRGYNYLDWYLQKPGQSPQLLIYLGSNRASGVPDRFSGSGSGTDFTLKISRAEAEDVGVYYCMQQQEAPLTFGGGTKVEIKR
0.46 nM	0.000228 s⁻¹	491000 M⁻¹ s⁻¹	S-60-15.13 [N33I] (antibody, human IgG1, kappa, L234A L235A, V domains shown, huIgG1 LALAPS) VH: QVQLQESGPGLVKPSETLSLTCAVSGYSISSGYYWGWIRQPPGKGLEWIGTIYHSGSTYYNPSLKSRVTISVDTSKNQFSLKLSSVTAADTAVYYCARQGSIKQGYYGMDVWGQGTTVTVSS VL: DIVMTQSPLSLPVTPGEPASISCRSSQSLLRSIGYNYLDWYLQKPGQSPQLLIYLGSNRASGVPDRFSGSGSGTDFTLKISRAEAEDVGVYYCMQQQEAPLTFGGGTKVEIKR
0.85 nM	0.000423 s⁻¹	495000 M⁻¹ s⁻¹	S-60-15.16 [N33M] (antibody, human IgG1, kappa, L234A L235A, V domains shown, huIgG1 LALAPS) VH: QVQLQESGPGLVKPSETLSLTCAVSGYSISSGYYWGWIRQPPGKGLEWIGTIYHSGSTYYNPSLKSRVTISVDTSKNQFSLKLSSVTAADTAVYYCARQGSIKQGYYGMDVWGQGTTVTVSS VL: DIVMTQSPLSLPVTPGEPASISCRSSQSLLRSMGYNYLDWYLQKPGQSPQLLIYLGSNRASGVPDRFSGSGSGTDFTLKISRAEAEDVGVYYCMQQQEAPLTFGGGTKVEIKR
1.03 nM	0.000425 s⁻¹	412000 M⁻¹ s⁻¹	S-60-15.17 [N33L] (antibody, human IgG1, kappa, L234A L235A, V domains shown, huIgG1 LALAPS) VH: QVQLQESGPGLVKPSETLSLTCAVSGYSISSGYYWGWIRQPPGKGLEWIGTIYHSGSTYYNPSLKSRVTISVDTSKNQFSLKLSSVTAADTAVYYCARQGSIKQGYYGMDVWGQGTTVTVSS VL: DIVMTQSPLSLPVTPGEPASISCRSSQSLLRSLGYNYLDWYLQKPGQSPQLLIYLGSNRASGVPDRFSGSGSGTDFTLKISRAEAEDVGVYYCMQQQEAPLTFGGGTKVEIKR
